Results published in IntAct's records for PubMed 24034250.

B1: Apoptosis regulator Bcl-2 homolog (Murid herpesvirus 4 (MuHV-4)), P89884 (parent)
chain: MSHKKSGTYWATLITAFLKTVSKVEELDCVDSAVLVDVSKIITLTQEFRRHYDSVYRADYGPALKNWKRDLSKLFTSLFVDVINSGRIVGFFDVGRYVCEEVLCPGSWTEDHELLNDCMTHFFIENNLMNHFPLEDIFLAQRKFQTTGFTFLLHALAKVLPRIYSGNVIYV

Variants of: B1
Conditions: with becn1_human BECN1, Q14457
Chain of becn1_human BECN1, Q14457 (Q14457 whole entry): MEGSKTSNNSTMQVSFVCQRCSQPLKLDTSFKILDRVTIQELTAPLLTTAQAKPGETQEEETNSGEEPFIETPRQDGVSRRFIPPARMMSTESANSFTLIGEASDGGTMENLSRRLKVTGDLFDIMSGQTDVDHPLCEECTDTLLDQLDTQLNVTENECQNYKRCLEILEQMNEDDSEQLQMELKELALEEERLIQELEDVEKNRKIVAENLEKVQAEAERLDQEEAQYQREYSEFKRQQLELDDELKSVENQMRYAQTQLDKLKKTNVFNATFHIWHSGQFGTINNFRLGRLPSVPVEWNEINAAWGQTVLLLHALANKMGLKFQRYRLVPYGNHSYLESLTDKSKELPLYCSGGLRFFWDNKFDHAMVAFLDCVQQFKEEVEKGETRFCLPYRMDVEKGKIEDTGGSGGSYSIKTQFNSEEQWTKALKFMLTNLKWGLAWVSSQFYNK

Variant | effect of a mutation on the interaction
MSHKKSGTYWATLITAFLKTVSKVEELDCVDSAVLVDVSKIITLTQEFRRHYDSVYRADYGPALKNWKRDLSKLFTSLFVDVINAAAIVGFFDVGRYVCEEVLCPGSWTEDHELLNDCMTHFFIENNLMNHFPLEDIFLAQRKFQTTGFTFLLHALAKVLPRIYSGNVIYV | decreasing interaction strength

Variants of: B1
Conditions: with bax_human BAX

Variant | effect of a mutation on the interaction
MSHKKSGTYWATLITAFLKTVSKVEELDCVDSAVLVDVSKIITLTQEFRRHYDSVYRADYGPALKNWKRDLSKLFTSLFVDVINAAAIVGFFDVGRYVCEEVLCPGSWTEDHELLNDCMTHFFIENNLMNHFPLEDIFLAQRKFQTTGFTFLLHALAKVLPRIYSGNVIYV | decreasing interaction strength
